These results are taken from publication PMC12604968, “Mutant NPM1 modulates PDCD4 ubiquitination degradation and facilitates leukemogenesis” (iScience, 2025).

First the molecules themselves.
B1: Biotin-PDCD4-NoLS peptide (peptide)
peptide: Biotin-EARINAKAKRRLRKNSSRDSGRG
notes: PDCD4, human, nucleolar localization signal (NoLS); also called biotinylated PDCD4-NoLS peptides; biotin-tagged PDCD4-NoLS peptide; source: synthetic peptide, bought: GL Biochem; not shown: biotin, N-terminal, kept
B2: His-tagged NPM1 N-terminal domain (NPM1-NT, aa 1-117) (domain or fragment, human, UniProt P06748 1-117, looked up)
chain: MEDSMDMDMSPLRPQNYLFGCELKADKDYHFKVDNDENEHQLSLRTVSLGAGAKDELHIVEAEAMNYEGSPIKVTLATLKMSVQPTVSLGGFEITPPVVLRLKCGSGPVHISGQHLV
notes: source: E. coli BL21 (DE3), purified (Ni-NTA)

Test [1] concerns the target B2. Kind of test: pull-down; biotinylated PDCD4-NoLS peptide immobilised on streptavidin beads, incubated with purified NPM1 fragment proteins. Particulars: both partners purified.
The target of test [2] is T1, GST-PDCD4 recombinant protein (human, UniProt Q53EL6 1-469).
T1 construct: PDCD4 (programmed cell death 4), human, amplified from cDNA of HEK293T cells and cloned into pGEX-6P-1; pGEX-6P-1 is known to add GST at the N-terminus; also called GST-tagged PDCD4; source: E. coli BL21 (DE3), purified (Glutathione Sepharose 4FF)
T1 sequence (looked up): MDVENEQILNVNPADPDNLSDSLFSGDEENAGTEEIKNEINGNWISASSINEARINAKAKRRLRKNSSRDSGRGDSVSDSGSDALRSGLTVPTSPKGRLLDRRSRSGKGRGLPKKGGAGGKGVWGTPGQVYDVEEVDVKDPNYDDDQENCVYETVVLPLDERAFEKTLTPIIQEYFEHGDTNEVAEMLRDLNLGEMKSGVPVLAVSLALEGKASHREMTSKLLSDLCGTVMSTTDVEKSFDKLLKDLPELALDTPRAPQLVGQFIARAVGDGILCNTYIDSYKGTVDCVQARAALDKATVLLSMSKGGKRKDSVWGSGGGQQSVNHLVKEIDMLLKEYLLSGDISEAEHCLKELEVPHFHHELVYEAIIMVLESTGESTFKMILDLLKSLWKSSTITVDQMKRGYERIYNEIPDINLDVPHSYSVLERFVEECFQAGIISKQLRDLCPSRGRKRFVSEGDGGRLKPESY
Kind of test: pull-down; GST-PDCD4 immobilised on Glutathione Sepharose 4FF beads, incubated with purified His-tagged proteins; SDS-PAGE, Coomassie blue. The following applies: both partners purified.

Ends that are not written are not given here. * marks the point of attachment. Biotin = O=C1N[C@H]2[C@H](CS[C@H]2CCCCC(=O)*)N1

In the case of B1, in test [1], the binding result is “binds”.
Consider B2, for which the binding result in test [2] is given as “binds”.
